In US20050100965A1:

Tests used:
(4C/A)-huIL-18 (human) [1] = biological target: (4C/A)-huIL-18 (human) (UniProt Q14116); assay: Biacore
NEM-huIL-18 (human) = NEM-huIL-18 (human) (UniProt Q14116); assay: Biacore
[2] = biological target: 125I labeled rhuIL-18 (human) (UniProt Q14116); assay: Receptor Binding Assay: inhibition of 125I-rhu-IL-18 binding to IL-18Rαβ on TNF-treated KG-1 cells
(4C/A)-huIL-18 (human) [3] = biological target: (4C/A)-huIL-18 (human) (UniProt Q14116); assay: cell-based or functional assay
[4] = biological target: natural human IL-18 (human) (UniProt Q14116); assay: cell-based or functional assay
(4C/A)-huIL-18 (human) [5] = biological target: (4C/A)-huIL-18 (human) (UniProt Q14116); assay: Biacore, (4C/A)-HuIL-18

IL-18BP-Fc (from UniProt O95998 31-194) (Fc fusion)
Kd ((4C/A)-huIL-18 (human) [1]): 0.135 nM
Kd (NEM-huIL-18 (human)): 0.098 nM
IC50 [2]: 1 nM
KG-1, Neutralization Potency in vitro (IC50, nM) ((4C/A)-huIL-18 (human) [3]): 0.03 nM
WBA, Neutralization Potency in vitro (IC50, nM) [4]: 5.7 nM
Kd ((4C/A)-huIL-18 (human) [5]): 0.19 nM
koff ((4C/A)-huIL-18 (human) [5]): 2.6e-05 s⁻¹
kon ((4C/A)-huIL-18 (human) [5]): 140000 M⁻¹ s⁻¹
